Residue numbers refer to the chain shown, from its start.
T1: CD127 (as used in the BIAcore measurement of Table 1) (human, UniProt P16871 21-239, limits assumed)
T1 construct: the Mabs are called anti-human CD127; also called alpha chain of the IL-7 receptor; IL-7Ralpha
T1 sequence (looked up): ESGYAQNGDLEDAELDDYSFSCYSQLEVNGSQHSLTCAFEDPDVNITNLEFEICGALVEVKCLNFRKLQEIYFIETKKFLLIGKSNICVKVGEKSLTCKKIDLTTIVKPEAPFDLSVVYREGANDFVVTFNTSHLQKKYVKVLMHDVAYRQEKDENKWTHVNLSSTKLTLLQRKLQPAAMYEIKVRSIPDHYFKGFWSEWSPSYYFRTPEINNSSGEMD

B1: MD707-13 (antibody, V domains shown)
VH: QLKESGPGLVQPSQTLSLTCTVSGLSLPNNNIAWIRQSPGKGLEWMGVIWSNGDTDYNSAIRSRLSISRDSSKSQVFLRMNSLQSEDTAMYFCAREGMTTLDYWGQGVVVTVSS
VL: EIVLTQSPTTMAASPGEKVTITCRASSSVSYMHWFQQKSGSSPKPWIYDSSDLASGVPDRFSGSGSGTSYSLTISSMEAEDAATYYCLQRSSYPRTFGGGTKLELKR
notes: also called 7MD07-13; rat anti-human CD127 Mab MD707-13
B2: MD707-1 (antibody, V domains shown)
VH: AVHLVESGGGLVQPKESLKISCAASGFTFSNAAMFWVRQAPGKGLEWVARIRTKANNYATYYADSVKGRFTISRDDSKSMVYLQMDNVKTDDTAMYYCIVVVLTTTRDYFDYWGQGVMVTVSS
VL: DIVLTQAPLSVSVTPGESASISCRSSQSLLTVKGITSLYWFLQKPGKSPQLLMYRMSNLASGVPDRFRGSGSETDFTLKISKVETEDVGVYYCAQFLEYPHTFGAGTKLELKR
notes: also called 7MD07-1; rat anti-human CD127 Mab MD707-1
B3: MD707-3 (antibody, V domains shown)
VH: B2 VH with F35Y, D64E
VL: B2 VL with M53I
notes: also called 7MD07-3; rat anti-human CD127 Mab MD707-3

Biological target: T1, CD127 (as used in the BIAcore …)
Assay: SPR (BIAcore)

| Kd | Binder |
| --- | --- |
| 1.31 nM | B1 |
| 15.9 nM | B2 |
| 6.52 nM | B3 |

— patent publication US20140308281A1 (OSE IMMUNOTHERAPEUTICS, published 2014)
